Experimental data published in patent US20120027677A1.

Legend:
[1] = target: PrP^C, nonpathogenic (cellular) form of the human prion protein (in normal human brain homogenate and human plasma) (human) (UniProt P04156)
[2] = target: PrP^C, nonpathogenic (cellular) form of the human prion protein (in normal human brain homogenate and human plasma) (human) (UniProt P04156); remark: listed apart in the source

Substance | ave (RLU), Nomal BH [1] [RLU] | LU [2] [LU]
3F4 antibody | 14.6 | 
mAb SAF32 (antibody) |  | 888
